Experimental findings from patent publication US8242240B2, “Anti-inflammatory compounds and uses thereof” (Yale University, priority 2000, dated 2012) are described below.

Assay [1] concerns the target T1, IKKβ-NEMO interaction (Homo sapiens, UniProt Q9Y6K9).
T1 construct: bacterially expressed version of full length NEMO fused at its NH2-terminus to glutathione S-transferase; made in house; host or cells: bacteria (GST-NEMO); in vitro translation (IKKβ)
Kind of assay: In vitro GST pull-down of IKKβ/NEMO in the presence of NBD peptides. It counts as binding. The note with it: peptide 125, 500 or 1000 μM. As to the method:
(§1) (A) Sequences of wild-type (SEQ ID NO:18) and mutant (SEQ ID NO:19 forms of IKKβ NBD peptide. (B) GST-pull-down analysis was performed using either GST-NEMO-in vitro translated IKKβ (upper panel) or GST-IKKβ-(644-756)-in vitro translated NEMO (lower panel). The assay was performed in the absence (no peptide) or presence of increasing concentrations ([…], 500 or 1000 μM) of either mutant (MUT) (SEQ ID NO:19) or wild-type (WT) NBD (SEQ ID NO:18). (C) HeLa cells were incubated with either peptide (200 μM) for the times indicated. Following lysis, the IKK complex was immunoprecipitated using anti-NEMO and the resulting immunoblot probed with anti-IKKβ. (D) Gel image showing anti-NEMO immunoprecipitation. (E) Gel image showing anti-FLAG immunoblot. (F) HeLa cells were incubated for three hours with increasing concentrations: 50, 100 or 200 μM) of each peptide followed by treatment for fifteen minutes with TNFα (10 ng/ml) as indicated (+). Following lysis, nuclear extracts were made and 10 μg of protein from each sample was used for EMSA using a specific [^32P]-labeled κB-site probe. (G) Gel image showing anti-Phospho-C-Jun immunoblot and anti-β-Actin immunoblot. (H) HeLa cells were transfected for forty-eight hours with pBIIX-luciferase then incubated for two hours in the absence (control) or presence of mutant or wild-type NBD peptide (100 and 200 μM of each). Subsequently the cells were either treated with TNFα (10 ng/ml) as indicated (toe panel) or left untreated (bottom panel) for a further four hours after which NF-κB activation was measured by luciferase assay.
The sequences of the two NBD peptides used in t its study were [[…]][…] (wild-type) (SEQ ID NO: 18) and [[…]][…] (mutant) (SEQ ID NO: 19; FIG. 5A). The antennapedia homeodomain sequence (Derossi et al., (1994) J. Biol. Chem. 269, 10444-10450; U.S. Pat. No. 5,888,762; U.S. Pat. No. 6,015,787; U.S. Pat. No. 6,080,724) is bracketed and the positions of the W to A mutations are underlined. Both peptides were dissolved in DMSO to a stock concentration of 20 mM. For all experiments DMSO alone controls were no different from no peptide controls.
The mutant was identical except that the tryptophan residues (W739 and W741) in the NBD were mutated to alanine. […] To test the ability of the NBD peptides to enter cells and inhibit the IKKβ-NEMO interaction, HeLa cells were incubated with the peptides for different time periods and immunoprecipitated the IKK complex using anti-NEMO. In agreement with the in vitro data (FIG. 5B), wild-type but not mutant disrupted the formation of the endogenous IKK complex (FIG. 5C).

In assay [2] the target is T2, endogenous IKK complex (Homo sapiens, UniProt Q9Y6K9).
T2 construct: wild-type but not mutant disrupted the formation of the endogenous IKK complex; endogenous in cells; host or cells: HeLa
T2 sequence (Q9Y6K9 whole entry, one chain of several): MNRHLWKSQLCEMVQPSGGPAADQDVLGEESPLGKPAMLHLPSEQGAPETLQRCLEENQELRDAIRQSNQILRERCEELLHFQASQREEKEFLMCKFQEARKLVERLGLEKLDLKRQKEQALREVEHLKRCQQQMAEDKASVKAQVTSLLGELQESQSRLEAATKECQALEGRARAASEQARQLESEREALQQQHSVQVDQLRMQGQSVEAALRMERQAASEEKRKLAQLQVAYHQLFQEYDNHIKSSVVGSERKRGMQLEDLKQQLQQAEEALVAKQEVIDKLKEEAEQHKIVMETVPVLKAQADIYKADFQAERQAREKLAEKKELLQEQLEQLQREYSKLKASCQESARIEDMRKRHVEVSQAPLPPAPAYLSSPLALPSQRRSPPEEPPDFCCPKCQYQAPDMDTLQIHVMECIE
Kind of assay: Anti-NEMO immunoprecipitation of the IKK complex from peptide-treated HeLa cells. Type of assay: cell-based. The note with it: peptide 200 μM, anti-NEMO IP, anti-IKKβ blot. On the procedure:
as §1, with “(H) HeLa cells were transfected for forty-eight hours with pBIIX-luciferase then incubated for two hours in the absence (control) or presence of mutant or wild-type NBD peptide (100 and 200 μM of each).” left out, “assay. […]” for “assay.”

The subject of assay [3] is NF-κB. In words: pBIIX-luciferase NF-κB reporter assay in HeLa cells. Type of assay: cell-based, human. The note with it: for TNFα-induced NF-κB activation (luciferase reporter): peptide 100 and 200 μM 2 h, TNFα 10 ng/ml 4 h; for basal NF-κB activity (luciferase reporter): no TNFα. As to the method: as §1
For transfection studies, HeLa and COS cells were seeded into either twenty-four well (1×10^5 cells/well) or six well (5×10^5 cells/well) plates and grown for twenty-four hours before transfection of DNA with FUGENE6(Roche) according to the manufacturer's protocol. Cells in twenty-four well and six well trays received a total of 1 μg or 2 μg of DNA respectively. After forty-eight hours cells were lysed with TNT (200 mM NaCl, 20 mM Tris-pH 8.0, 1% Triton-100) and the lysate were used for either immunoprecipitation or luciferase assay (Primage Luciferase Assay System).
The effects of the NBD peptides on signal-induced activation of NF-κB were investigated next. Analysis using electrophoretic mobility shift assay. […] Further, after transfecting HeLa cells with the pBIIX-luciferase reporter, cells were preincubated with wild-type or mutant peptides, treated with TNFα and NF-κB activation measured by the luciferase reporter assay. As shown in FIG. 5H (top panel), the wild-type NBD peptide inhibited TNFα-induced NF-κB activation whereas the mutant had no effect. […]

The test system of assay [4] is mice (PMA-induced ear edema). Kind of assay: PMA-induced ear edema in mice. It counts as in vivo. As to conditions: topical 200 μg/ear. As to the method: The NBD peptide was tested for its ability to inhibit inflammatory responses in animals using two distinct models of acute inflammation. In the first model, ear edema was induced in mice using phorbol-12-myristate-13-acetate (PMA) and the effects of topical administration of the NBD peptides were measured. Ear edema using PMA was induced in replicate groups of age and sex matched mice as previously described (Chang et al., (1987) Eur. J. Pharmacol. 142, 197-205). Twenty μl of either NBD peptides (200 μg/ear), dexamethasone (40 μg/ear) or vehicle (DMSO:Ethanol; 25:75 v/v) was applied topically to the right ear of mice thirty minutes before and thirty minutes after the application of 20 μl of PMA (5 μg/ear) dissolved in ethanol. Ear swelling was measured six hours after PMA application using a microgauge and expressed as the mean difference in thickness between the treated (right) and untreated (left) ears. Statistical analysis of the data was performed using the students t-test. A value of p<0.05 was considered statistically significant.

T1 sequence (Q9Y6K9 whole entry, the tested form may be a part): as the sequence (Q9Y6K9 whole entry, one chain of several) above

Take “[DRQIKIWFQNRRMKWKK]TALDASALQTE (DRQIKIWFQNRRMKWKKTALDASALQTE; Description of Artificial Sequence: Synthetic Mutant NBD peptide) [identical to wild-type NBD peptide except W739 and W741 mutated to alanine, reference compound]”: in assay [1], the “inhibition of in vitro pull-down of [35S]-labeled IKKβ by GST-NEMO” value is “not” and the “inhibition of in vitro pull-down of [35S]-labeled NEMO by GST-IKKβ-(644-756)” value was “not”. The “disruption of the formation of the endogenous IKK complex” value in assay [2] was “not”. In assay [3], the “TNFα-induced NF-κB activation (luciferase reporter)” value is recorded as “no effect”. Further, in assay [4] (p=0.09), the “effect on PMA-induced ear thickening” value is given as “insignificant”.
Turning to “[DRQIKIWFQNRRMKWKK]TALDWSWLQTE (DRQIKIWFQNRRMKWKKTALDWSWLQTE; Description of Unknown: Unknown wildtype NBD peptide) [wild-type NBD peptide]”, the “inhibition of in vitro pull-down of [35S]-labeled IKKβ by GST-NEMO” value in assay [1] is recorded as “dose-dependently inhibited”. Also, the “inhibition of in vitro pull-down of [35S]-labeled NEMO by GST-IKKβ-(644-756)” value in assay [1] was “dose-dependently inhibited”. Besides, the “disruption of the formation of the endogenous IKK complex” value in assay [2] is “disrupted”. Moreover, the “basal NF-κB activity (luciferase reporter)” value in assay [3] (listed as cell-permeable NBD peptide) is “modest increase”; in assay [3] (listed as wild-type peptide) it was “enhanced”. Moreover, in assay [3], the “TNFα-induced NF-κB activation (luciferase reporter)” value is given as “inhibited”. The “inhibition of PMA-induced ear thickening” value in assay [4] (30 min before and after PMA 5 μg/ear, 6 h) is given as 77±3%.
